The subject of data set [1] is preKARS2 (precursor of mitochondrial lysyl-tRNA synthetase) (Homo sapiens). The data set is described as follows: EMSA, Scatchard. The conditions noted are these: no enolase; 0.5 uM preKARS2 (Methods print 0.5 mM); none (unmodified transcript); 20 mM Tris-HCl pH 7.5, 150 mM NaCl, 10 mM MgCl2, 5 mM DTT, 10% glycerol, 0.1 mg/mL BSA, 30 C 15 min; native 8% PAGE in 0.5x Tris-borate pH 8.3, 5% glycerol. A general note: In EMSA bound probe runs differently from free probe, usually more slowly.

The subject of data set [2] is human enolase gamma (ENO2, neuronal) (Homo sapiens). Description: EMSA. The conditions noted are these: apparent Kd, one value given for all three isoforms; none (unmodified transcript); 20 mM Tris-HCl pH 7.5, 150 mM NaCl, 10 mM MgCl2, 5 mM DTT, 10% glycerol, 0.1 mg/mL BSA, 30 C 15 min; native 8% PAGE in 0.5x Tris-borate pH 8.3, 5% glycerol.
Data set [3] has as its system preKARS2 (precursor of mitochondrial lysyl-tRNA synthetase) (Homo sapiens). The data set is described as follows: EMSA. The conditions noted are these: apparent Kd with human enolase gamma present; no ternary complex detected; none (unmodified transcript); 20 mM Tris-HCl pH 7.5, 150 mM NaCl, 10 mM MgCl2, 5 mM DTT, 10% glycerol, 0.1 mg/mL BSA, 30 C 15 min; native 8% PAGE in 0.5x Tris-borate pH 8.3, 5% glycerol.

Data set [4] has as its system human enolase beta (ENO3, muscle) (Homo sapiens). The data set is described as follows: EMSA. The conditions noted are these: apparent Kd, one value given for all three isoforms; none (unmodified transcript); 20 mM Tris-HCl pH 7.5, 150 mM NaCl, 10 mM MgCl2, 5 mM DTT, 10% glycerol, 0.1 mg/mL BSA, 30 C 15 min; native 8% PAGE in 0.5x Tris-borate pH 8.3, 5% glycerol.
Data set [5] relates to human enolase alpha (ENO1) (Homo sapiens). The data set is described as follows: EMSA. The conditions noted are these: apparent Kd, one value given for all three isoforms; none (unmodified transcript); 20 mM Tris-HCl pH 7.5, 150 mM NaCl, 10 mM MgCl2, 5 mM DTT, 10% glycerol, 0.1 mg/mL BSA, 30 C 15 min; native 8% PAGE in 0.5x Tris-borate pH 8.3, 5% glycerol.

For the substance “tRK1 (yeast tRNALys acceptor 1) T7 transcript”, the Kd was 300 nM in data set [1]; 2000 nM in data set [2]; below 20 nM in data set [3]; 2000 nM in data set [4]; 2000 nM in data set [5].

Values taken from article PMC4463592.
